T1: recombinant human ZNRF3 extracellular domain (human, UniProt Q9ULT6 56-219)
T1 construct: extracellular domain; also called huZNRF3; human ZNRF3 ECD
T1 sequence (looked up): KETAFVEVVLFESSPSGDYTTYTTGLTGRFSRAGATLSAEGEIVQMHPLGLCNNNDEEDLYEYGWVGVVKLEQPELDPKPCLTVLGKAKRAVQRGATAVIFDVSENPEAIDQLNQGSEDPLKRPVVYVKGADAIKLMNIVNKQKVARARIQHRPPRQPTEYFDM

B1: ZNRF3-301 (antibody, V domains shown)
VH: QVQLKESGPGLVQPSQTLSLTCTVSGFSLTSYSVHWVRQHSGKSLEWMGRIWSDGDTSYNSAFTSRLSISRDTSKSQVFLKMNSLQTEDTGTYYCDRSGGSPFFDYWGQGVMVTVSS
VL: QFVLTQSNSVSTNLGSTVKLSCERSIGNIGSNYVNWYQQYEGRSPTTMIYKFDQRPDGVPDRFSGSIDRSSNSVLLTINNVQTEDEADYFCQSYSSDMYIFGGGTKLTVL
notes: Rat clone; VH/VL only
B2: ZNRF3-305 (antibody, V domains shown)
VH: EVLLQQSGAELVRPGSSVKISCKTSGYTFTDYYLHWVKQRPEQGLVWIGRINPINGKTVCIEKFKTKATLTADKSSNTAYMELSSLTSEDTATYFCTRGGLAYWGQGTLVTVSS
VL: DIQMTQSPSSLPASLGERVTISCRASQGISNNLNWYQQKPDGTIKPLIYYTSNLQSGVPSRFSGSGSGTDYSLTIGSLEPEDFTMYYCQQDASFPPTFGAGTKLELK
notes: Rat clone; VH/VL only
B3: ZNRF3-269 (antibody, V domains shown)
VH: EIQLQESGPGLVKPSQSLSLTCSVTDDTITSGYDWSWIRKFPGNKMEWMGDISSSGHTNYNPSLQIRISITRDTSKNQFFLQLNSVTTEDSATYYCARGGFLFPFTFWGQGTLVTVSS
VL: DIQMTQSPSSLPASLGERVTISCRASQVLNNNLNWYQQKPDGTIKPLLYYTSNLQSGVPSRFSGSGSGTDYSLTITSLDPEDFAIYYCQQDASFPPTFGGGTKLELK
notes: Rat clone; VH/VL only
B4: ZNRF3-219 (antibody, V domains shown)
VH: EVQLVESGGGLVQPGRSLKVSCAASGFTFSTFAMAWVRQAPKKGLEWVATITPGGSNTYYPDSVKGRFTISRDNAKSTLYLQMDSLRSEDTANYYCAKCGYPGITSFDYWGQGVMVTVSS
VL: DIQMTQSPSFLSASVGDRVSINCKASQNIGKYLNWYQQELGEAPKRLIYNTNNLQTGIPSRFSGSGSGTDYTLTISGLQPEDFATYFCLQHNGFPLTFGSGTKLEIK
notes: Rat clone; VH/VL only
B5: ZNRF3-253 (antibody, V domains shown)
VH: EVQLVESGGGLVQPERSMKLSCAASGFTFSNYGMAWVRQAPTKGLEWVATINSDGSGTYYRGSVKGRFTISRDNAKSTLYLQMNSLRSDDTATYYCTRGRMLRIISFFDYWGQGVMVTVSS
VL: DIQMTQSPASLSASLGETVSIECLASEDIANDLAWYQQKSGKSPQVLIYAASRVQDGVPSRFSGSGSGTRYSLKITDMQPEDVADYFCQQSYGFPLTFGSGTKLEIK
notes: Rat clone; VH/VL only
B6: ZNRF3-254 (antibody, V domains shown)
VH: EVQLVESGGGLVQPERSMKLSCAASGFTFNNYGMAWVRQTPTKGLEWVATINSDGSGTHYRGSVKGRFTISRDNAKGTLYLQMHNLRSDDTATYYCARGRILRIITYFDSWGQGVVVTVSS
VL: DIQMTQSPASLSASLGESVSIECLASEDIANDLAWYQQKSGRSPQVLIHAASRVQDGVPSRFSGSGSGTRYSLKITDMQPEDVADYFCQQSYGFPLTFGSGTKLEIK
notes: Rat clone; VH/VL only
B7: ZNRF3-300 (antibody, V domains shown)
VH: EVQLVESGGGLVQPERSMKLSCAASGFTFSNYGMAWVRQAPTKGLEWVATINSDGSGTYYRGSVKGRFTISRDNARNTLYLEMNSLRSDDTATYYCTRGRILRIITYFDYWGQGVMVTVSS
VL: DIQMTQSPASLSASVGETVSIECLASEDIANDLAWYQQKSGKSPQVLIYAASRVQDGVPSRFSGSGSGTRYSLRISDMQPEDVADYFCQQSYSFPLTFGSGTKLEIK
notes: Rat clone; VH/VL only
B8: ZNRF3-275 (antibody, V domains shown)
VH: QVQLKESGPGLVQPSQTLSLTCTVSGFSFNYYNVHWLRQPPGKGLEWLGVIWSGGNRDYNSALKPRLRISRDTSKTQVFLTLNSLQTEDTGIYYCTRMWGYGYNPFDHWGQGVMVTVSS
VL: DIQMTQSPSFLSASLGDNITITCHASQDIKGWLAWYQQKSGNAPELLIYKASSLQSGVPSRFSGGGSGTEYVLTISNLQPDDIATYYCQLYHSFPFTFGSGTKLETK
notes: Rat clone; VH/VL only
B9: ZNRF3-314 (antibody, V domains shown)
VH: QVQLKESGPGLVQPSQTLSLTCNVSGFSFNYYNVHWVRQPPGKGLEWLGVIWSGGNTDYNSALKPRLRISRDTSKSQVFLTLNSLQTEDTGIYYCNRMWGYGYNPFDYWGQGVMVTVSS
VL: DIQMTQSPSFLSASLGNNITITCHASQDIKGWLAWYQQKSGNAPELLIYKTSSLQSGVPSRFSGSGSGTEYVLTISNLQPDDIATYYCQLYHSFPFTFGSGTKLEIK
notes: Rat clone; VH/VL only
B10: ZNRF3-247 (antibody, V domains shown)
VH: EVQLVGSGEGLVQPGSSMKLSCVASGFTFSNSGMNWIRQAPKKGLEWIALIYYTNTYYADSVKGRFTISRDNSKNTLYLEMNSLRSEDTAMYYCAKRGLTGSVDYWGQGVMVTVSS
VL: DIQMTQSPSFLSASVGDRVTINCKASQNINRYLNWYQQKLGEAPKRLIYDTSNLQTGIPSRFSGSGSGTDFTLTISSLQPEDFATYFCLQHDSFPNTFGTGTKLELK
notes: Rat clone; VH/VL only
B11: ZNRF3-312 (antibody, V domains shown)
VH: QVQLQQSGAELVKPGSSVKMSCKASGYSFTTYYIYWINQRPGQGLEWIGRIGLGSGDTDYNEKFKGKATFTVDKFSNTAYLQLSSLTPEDTAVYYCARWDYGYRGFAYWGQGTLVTVSS
VL: DVVMTQTPVSLSVSLGGQVSISCRSSQSFVHSDGNTYLNWYLQTPGQSPQLLIYKVSNRLSGVPDRFSGSGSGTYFTLKISRVEHDDLGVYYCGQASKIPLTFGSGTKLEIK
notes: Rat clone; VH/VL only
B12: ZNRF3-265 (antibody, V domains shown)
VH: EVQLVESGGGLVQPGRSMKLSCVASGFSFSKYGMAWVRQAPTKALEWVAIISQDGSRIYYGGSVKGRFTLSRDNEKSTLHLHMNSLRSEDTATYYCARGSILRMITFFDYWGQGVTVTVSS
VL: DIQMTQSPASLSASLGETVSIECLASEGISNDLAWYQQKSGKSPRLLIYAASRLQDGVPSRFSGSGSDTRFSLKISGMHPEDEADYFCQQSYGYPLTFGSGTKLEIK
notes: Rat clone; VH/VL only
B13: ZNRF3-287 (antibody, V domains shown)
VH: EVQLVGSGGGLVQPGRSLKISCAASGFTFSYYGMAWVRQAPTRGLEWVATITYNGSKSYYRDSVKGRFTISREYAKSTLYLQMDDLTSEDTATYFCARRTTGMLFDYWGQGVLVTVSS
VL: QAVLTQPNSVSMSLGSTVKLSCTLNSGNIENNFVHWYQQYEGRSPTTMIYNDDKRPDGVPDRFSGSIDSSSNSAFLTINNVEIGDEAIYFCHSFVSSIHIFGGGTKLTVL
notes: Rat clone; VH/VL only
B14: ZNRF3-279 (antibody, V domains shown)
VH: QVQLQQSGAELVKPGTSVRLSCKASGYTFTHNHMNWIKQTTGQGLEWIGIINPGSGGTNYNVRFKGKATLTVDTSSSTAFMQLSSLTPEDSAVYYCARNLITIAGPFAYWGQGTLVTVSS
VL: DTVLTQSPALTVSPGERVSISCRASEGVSSYIHWYQQKPGQQPKLLIYKASNLASGVPARFSGSGSGTDFTLTIDPVEADDTATYFCQQSWIDHTFGTGTKLELK
notes: Rat clone; VH/VL only
B15: ZNRF3-172 (antibody, V domains shown)
VH: EVQLAESGGGLEQPGRSLKLSCAASGFTFSNYDMAWVRQAPTKGLEWVASIIASGGTTYYRDSVKGRFTVSRDNAKSTLYLQMDSLRSEDTATYYCARHGVGSYDWFADWGQGTLVTVSS
VL: DIVLTQSPALAVSLGQRATISCRASQSVTISGFNLMHWYQQKPGQQPKLLIYRASNLAFGIPARFSGSGSGTDFTLTINPVQADDITTYYCQQSRKSRTFGGGTKLELK
notes: Rat clone; VH/VL only
B16: ZNRF3-179 (antibody, V domains shown)
VH: EVQLAESGGGLEQPGRSLKLSCAASGFTFSNYDMAWVRQAPTKGLEWVASIITSGDTTYYRDSVKGRFTVSRDNAKSTLYLQMDSLRSEDTATYHCARHGVGSYDWFADWGQGTLVTVSS
VL: DIVLTQSPALAVSLGQRATISCRASQSVTISGYNLMHWYQQKPGQQPKLLIYRASNLAFGIPARFSGSGSGTDFTLTINPVQADDITTYYCQQSRKSRTFGGGTKLELK
notes: Rat clone; VH/VL only
B17: ZNRF3-182 (antibody, V domains shown)
VH: EVQLAESGGGLEQPGRSLKLSCAASGFTFSNYDMAWVRQAPTKGLEWVASIIKSGDTSYYRDSVKGRFTVSRDNAKSTLYLQMDSLRSEDTATYYCARHGVGSYDWFADWGQGTLVTVSS
VL: DIVLTQSPALAVSLGQRATISCRASQSVTISGFNLMHWYQQKPGQQPKLLIYRASNLAFGIPARFSGSGSGTDFTLTINPVQADDFTTYYCQQSRKSRTFGGGTKLELK
notes: Rat clone; VH/VL only
B18: ZNRF3-30 (antibody, V domains shown)
VH: EVQLAESGGGLEQPGRSLKLSCAASGFTFSNYDMAWVRQAPTRGLEWVASILTSGGTTYYRDSVKGRFTVSRDNAKSTLYLQMDSLRSEDTATYYCARHGVGSYDWFADWGQGTLVTVSS
VL: DIVLTQSPALAVSLGQRATISCRASQSVTISGYNLMHWYQQKPGQQPKLLIYRASNLAFGIPARFSGSGSGTDFTLTINPVQADDITTYYCQQSRKSRTFGGGTRLELK
notes: Rat clone; VH/VL only
B19: ZNRF3-296 (antibody, V domains shown)
VH: EVQLVESGGGLVQPGKSLRLSCSASGFTFSNYGLHWIRQAPGKGLDWLGYSSSNSGTVYGDAVKGRVTISRDNAKNTLYLQLNSLKSEDTAIYYCARGYSSSPFAYWGQGTLVTVSS
VL: DIVLTQSPALAVSLGQRVTISCKASQNVDGFGIGYMHWYQQKPGQKPKLLIFAGSNLASGIPARFSGSGSGTDFTLTIDPVETDDIATYYCQQNKDFPLTFGSGSRLEIT
notes: Rat clone; VH/VL only

The target in the test is T1, recombinant human ZNRF3 extracellular …. The test is described as follows: SPR Biacore 8K; antibody captured on Protein A; ZNRF3 ECD analyte; 25 C. As for the experimental part: Antibodies were screened for binding to recombinant human RNF43 and ZNRF3 ECDs using a Biacore® 8 k instrument (GE Life Sciences). Briefly, antibodies diluted to 1 μg/ml in 1×HBSP buffer (Cytiva, BR100368) were captured on a Sensor Chip Protein A (GE Life Sciences) using a flow rate of 10 μl/minute and a contact time of 60 seconds. Binding of recombinant human RNF43 and ZNRF3 extracellular domain to the captured antibodies was analyzed at 25° C. using a single cycle kinetics method with a flow rate of 30 μl/minute, a contact time of 180 seconds and a dissociation time of 600 seconds. The concentration of recombinant human RNF43 and ZNRF3 extracellular domain in the single cycle kinetics were 0, 0.8, 4, 20, and 100 nM. Between cycles, the chip was regenerated using 10 mM Glycine HCl pH 1.5 injected for 30 seconds at 30 μl/minute. Data were evaluated using Biacore 8K Evaluation software (GE Life Sciences). Kinetic constants were obtained using a 1:1 binding model with the parameter RI set to zero. Cell surface ligase antibodies with sub-nanomolar affinities may provide advantages in certain instances, for example, in the degradation efficiency which is correlated with the durability of the ternary complex as shown in FIG. 5D.
Consider B1, for which the Kd stood at 0.0974 nM.

In the case of B2, the Kd stood at 7.18 nM.

In the case of B3, the Kd is 0.312 nM.

In the case of B4, the Kd was 1.9 nM.

With B5, the Kd came to 0.483 nM.

Consider B6, for which the Kd is 0.104 nM.

Turning to B7, the Kd is 0.239 nM.

B8: the Kd was determined as 0.0565 nM.

On to B9, for which the Kd was 0.104 nM.

Consider B10, for which the Kd was 0.161 nM.

For B11, the Kd was found to be 0.611 nM.

For B12, the Kd was determined as 0.0286 nM.

For the molecule B13, the Kd worked out at 0.191 nM.

B14: the Kd was 1.66 nM.

In the case of B15, the Kd came out at 0.21 nM.

As for B16, the Kd was found to be 0.11 nM.

Turning to B17, the Kd stood at 0.06 nM.

For B18, the Kd was 0.12 nM.

As for B19, the Kd worked out at 0.0371 nM.

The values above are taken from patent publication US20240101708A1 (Genentech, published 2024).
